The series concerns the target thymidylate synthase (Lactobacillus casei). Briefly: Compound was evaluated for the inhibition of dTMP synthetase with respect to dUMP.

B1: Thymidylate synthase (Escherichia coli), C3SWJ7 (protein)
chain: MKQYLELMQKVLDEGTQKNDRTGTGTLSIFGHQMRFNLQDGFPLVTTKRCHLRSIIHELLWFLQGDTNIAYLHENNVTIWDEWADENGDLGPVYGKQWRAWPTPDGRHIDQITTVLNQLKNDPDSRRIIVSAWNVGELDKMALAPCHAFFQFYVADGKLSCQLYQRSCDVFLGLPFNIASYALLVHMMAQQCDLEVGDFVWIGGDTHLYSNHMDQTHLQLSREPRPLPKLIIKRKPESIFDYRFEDFEIEGYDPHPGIKAPVAI
For the protein B1, the Km (in general, the substrate concentration at which the rate is half of its maximum) turned out to be 2 µM.

For the origin of these results see ChEMBL document CHEMBL1121725, “Interaction of 1-(5-phospho-beta-D-arabinofuranosyl)-5-substituted-uracils with thymidylate synthetase: mechanism-based inhibition by 1-(5-phospho-beta-D-arabinosyl)-5-fluorouracil” (J Med Chem, 1981).
